Results on three substances are retold here after publication doi:10.1101/2022.07.10.499479.

Where two headings read alike, the source gives them in different places.

The target in assay [1] is membrane-anchored iLID (improved Light Induced Dimerization protein with an N-terminal TatA-derived transmembrane helix) (Avena sativa). As to the kind of experiment: 3D single-molecule tracking in live cells.
Assay [2] shares this target. Put plainly: 3D single-molecule tracking in live cells. The source holds these as a separate data set.
Assay [3] has the same target. As to the kind of experiment: 3D single-molecule tracking in live cells. The source holds these as a separate data set.
For assay [4] the target is unchanged.
For assay [5] the target is unchanged. Put plainly: 3D single-molecule tracking in live cells. This is another data set of the same source.
Assay [6] has the same target. The source holds these as a separate data set.

What is called Kd is a measure of binding affinity in units of concentration. Read a high Kd as weaker binding. As for SspB_(micro)-Halo labelled with JFX549, in assay [1], the fraction iLID-associated came out at 31%. In assay [2], the Kd was 510 nM, the fold increase in affinity upon 488 nm illumination against before turned out to be 2 fold and the fraction iLID-associated stood at 45%. In addition, the fraction iLID-associated in assay [3] is 48%. This substance also had a median bound time t (bound) in assay [4] of 300 ms.

Regarding SspB_(milli)-Halo labelled with JFX549, the values for the fraction iLID-associated in assay [1] and in assay [2] were 6% and 7%, respectively. Moreover, the median bound time t (bound) in assay [4] was 175 ms.

Take SspB_(nano)-Halo labelled with JFX549: the fraction slowly diffusing (iLID-associated) was found to be 56% in assay [5] and 48% in assay [2]. In addition, the fraction of molecules at the membrane in assay [6] is > 80%. In assay [4], the median bound time t (bound) was found to be 350 ms.
